According to publication doi:10.1101/2022.11.25.517900 (bioRxiv, 2022):

Molecular target: the molecule itself
Test: cryo-EM structure

B1: Vibrio alginolyticus PomB, full length, non-cleaved (without protease site insertion) (natural protein, UniProt O06874 1-315, looked up)
chain: MDDEDNKCDCPPPGLPLWMGTFADLMSLLMCFFVLLLSFSEMDVLKFKQIAGSMKFAFGVQNQLEVKDIPKGTSIIAQEFRPGRPEPTPIDVIMQQTMDITQQTLEFHEGESDRAGGTKRDEGKLTGGQSPATSTQNNESAEADMQQQQSKEMSQEMETLMESIKKALEREIEQGAIEVENLGQQIVIRMREKGAFPEGSAFLQPKFRPLVRQIAELVKDVPGIVRVSGHTDNRPLDSELYRSNWDLSSQRAVSVAQEMEKVRGFSHQRLRVRGMADTEPLLPNDSDDNRALNRRVEISIMQGEPLYSEEVPVIQ
Does B1 bind?
Result: binds
